Measured values as given in patent publication US20220064329A1 (Novo Nordisk, published 2022).

What was measured:
Experiment in all cases: SPR, ratio of KD to KD of WT
FVII(a) variant T185A = biological target: T1, FVII(a) variant T185A (human, UniProt P08709 61-466)
T1 construct: hFVII alanine variant in cell culture supernatant
T1 sequence: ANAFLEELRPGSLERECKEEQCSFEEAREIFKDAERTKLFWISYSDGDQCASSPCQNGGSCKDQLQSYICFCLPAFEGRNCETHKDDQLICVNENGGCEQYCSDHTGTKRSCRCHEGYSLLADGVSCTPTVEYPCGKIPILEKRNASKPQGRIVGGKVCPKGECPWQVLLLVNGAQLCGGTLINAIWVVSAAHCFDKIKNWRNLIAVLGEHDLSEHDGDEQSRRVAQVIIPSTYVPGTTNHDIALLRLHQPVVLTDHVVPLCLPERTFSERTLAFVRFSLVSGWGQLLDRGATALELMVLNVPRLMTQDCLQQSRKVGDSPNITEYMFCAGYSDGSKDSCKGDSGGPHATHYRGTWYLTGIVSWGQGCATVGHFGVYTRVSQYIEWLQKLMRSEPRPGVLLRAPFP

FVII(a) variant P251A = biological target: T2, FVII(a) variant P251A (human, UniProt P08709 61-466)
T2 construct: hFVII alanine variant in cell culture supernatant
T2 sequence: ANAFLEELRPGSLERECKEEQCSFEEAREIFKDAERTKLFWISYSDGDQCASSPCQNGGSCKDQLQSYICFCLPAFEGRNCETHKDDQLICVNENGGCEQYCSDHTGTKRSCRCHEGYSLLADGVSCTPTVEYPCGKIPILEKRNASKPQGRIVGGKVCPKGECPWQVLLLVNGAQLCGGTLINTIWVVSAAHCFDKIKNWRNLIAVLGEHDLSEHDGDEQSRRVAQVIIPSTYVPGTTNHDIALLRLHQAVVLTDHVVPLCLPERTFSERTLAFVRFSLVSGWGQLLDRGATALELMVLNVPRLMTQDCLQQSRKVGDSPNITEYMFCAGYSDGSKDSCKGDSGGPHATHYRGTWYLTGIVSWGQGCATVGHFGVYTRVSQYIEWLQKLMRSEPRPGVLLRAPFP

FVII(a) variant E116A = biological target: T3, FVII(a) variant E116A (human, UniProt P08709 61-466)
T3 construct: hFVII alanine variant in cell culture supernatant
T3 sequence: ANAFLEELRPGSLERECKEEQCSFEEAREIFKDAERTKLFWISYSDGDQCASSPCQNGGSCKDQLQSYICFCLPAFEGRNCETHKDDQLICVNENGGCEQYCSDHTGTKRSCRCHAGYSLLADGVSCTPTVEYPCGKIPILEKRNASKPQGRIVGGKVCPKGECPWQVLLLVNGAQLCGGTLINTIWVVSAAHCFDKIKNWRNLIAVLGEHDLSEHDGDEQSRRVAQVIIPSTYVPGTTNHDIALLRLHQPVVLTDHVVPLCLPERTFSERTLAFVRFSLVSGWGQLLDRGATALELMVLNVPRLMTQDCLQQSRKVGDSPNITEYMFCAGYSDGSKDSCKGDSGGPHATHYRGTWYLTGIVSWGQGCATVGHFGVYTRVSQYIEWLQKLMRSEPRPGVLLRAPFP

FVII(a) variant G117A = biological target: T4, FVII(a) variant G117A (human, UniProt P08709 61-466)
T4 construct: hFVII alanine variant in cell culture supernatant
T4 sequence: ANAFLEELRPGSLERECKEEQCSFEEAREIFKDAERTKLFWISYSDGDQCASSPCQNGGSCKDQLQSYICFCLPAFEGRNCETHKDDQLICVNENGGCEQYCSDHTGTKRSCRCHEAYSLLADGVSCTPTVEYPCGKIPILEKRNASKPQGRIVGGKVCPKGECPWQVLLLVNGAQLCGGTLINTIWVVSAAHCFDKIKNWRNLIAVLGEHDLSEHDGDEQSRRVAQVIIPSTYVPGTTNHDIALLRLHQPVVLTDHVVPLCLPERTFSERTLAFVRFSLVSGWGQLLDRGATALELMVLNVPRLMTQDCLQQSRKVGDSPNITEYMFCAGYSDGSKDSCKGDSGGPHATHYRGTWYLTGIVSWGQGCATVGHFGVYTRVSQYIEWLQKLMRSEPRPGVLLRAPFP

FVII(a) variant T130A = biological target: T5, FVII(a) variant T130A (human, UniProt P08709 61-466)
T5 construct: hFVII alanine variant in cell culture supernatant
T5 sequence: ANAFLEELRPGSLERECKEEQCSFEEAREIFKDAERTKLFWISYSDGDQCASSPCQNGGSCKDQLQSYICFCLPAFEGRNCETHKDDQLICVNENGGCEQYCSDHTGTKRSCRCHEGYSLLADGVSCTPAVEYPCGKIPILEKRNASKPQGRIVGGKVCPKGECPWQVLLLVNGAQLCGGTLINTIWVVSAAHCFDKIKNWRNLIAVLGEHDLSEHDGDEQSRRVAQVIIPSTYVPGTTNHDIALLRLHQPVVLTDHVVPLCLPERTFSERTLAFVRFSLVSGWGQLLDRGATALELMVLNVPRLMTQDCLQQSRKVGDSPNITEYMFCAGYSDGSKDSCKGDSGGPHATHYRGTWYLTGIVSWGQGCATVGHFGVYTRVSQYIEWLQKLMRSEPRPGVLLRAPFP

- Fold diff (Variant/WT) (FVII(a) variant T185A): 3.3 fold
- Fold diff (Variant/WT) (FVII(a) variant P251A): 2.8 fold
- Fold diff (Variant/WT) (FVII(a) variant E116A): 1.6 fold
- Fold diff (Variant/WT) (FVII(a) variant G117A): 1 fold
- Fold diff (Variant/WT) (FVII(a) variant T130A): 105 fold
B1: mAb0842(OA) (antibody, human IgG4 S228P, kappa)
heavy: QVQLQESGPGLVKPSQTLSLTCTVSGYSISSDSAWSWIRQPPGKGLEWIGYIQYSGSTNYNPSLKSRVTISRDTSKNQFSLKLSSVTAADTAVYYCARSVNYYGNSFAVGYWGQGTLVTVSSASTKGPSVFPLAPCSRSTSESTAALGCLVKDYFPEPVTVSWNSGALTSGVHTFPAVLQSSGLYSLSSVVTVPSSSLGTKTYTCNVDHKPSNTKVDKRVESKYGPPCPPCPAPEFLGGPSVFLFPPKPKDTLMISRTPEVTCVVVDVSQEDPEVQFNWYVDGVEVHNAKTKPREEQFNSTYRVVSVLTVLHQDWLNGKEYKCKVSNKGLPSSIEKTISKAKGQPREPQVYTLPPSQEEMTKNQVSLSCAVKGFYPSDIAVEWESNGQPENNYKTTPPVLDSDGSFFLVSRLTVDKSRWQEGNVFSCSVMHEALHNHYTQKSLSLSLGK
light: EIVLTQSPATLSLSPGERATLSCRASQGISDYLHWYQQKPGEAPRLLIKYTSQPATGIPARFSGSGSGTDFTLTISSLEPEDFAVYYCQNGHSFPLTFGQGTKLEIKRTVAAPSVFIFPPSDEQLKSGTASVVCLLNNFYPREAKVQWKVDNALQSGNSQESVTEQDSKDSTYSLSSTLTLSKADYEKHKVYACEVTHQGLSSPVTKSFNRGEC
chain: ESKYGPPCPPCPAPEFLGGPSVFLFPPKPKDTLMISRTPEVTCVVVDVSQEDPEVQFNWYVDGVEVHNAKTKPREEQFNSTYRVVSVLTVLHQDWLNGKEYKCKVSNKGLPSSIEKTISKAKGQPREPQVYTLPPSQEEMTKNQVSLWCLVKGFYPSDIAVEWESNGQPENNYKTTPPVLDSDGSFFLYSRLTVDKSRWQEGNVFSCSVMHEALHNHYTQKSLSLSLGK
notes: also called monovalent humanized 11F2 antibody; one-armed anti-FVII(a) antibody
